± gives the standard error. This sample holds only a part of the variants without activity.
B1: glmS ribozyme (parent)
chain: AUAAAAGCGCCAGAACUACAGAAAUGUAGUUGACGAGGAGGAGGUUUAUCGAAUUUUCGGCGGAUGCCUCCAAA

Experiments:
Settings in all cases: with glucosamine-6-phosphate
glucosamine-6-phosphate [1] = variants of: B1; experiment: self-cleavage kobs at 640 uM GlcN6P; higher = faster cleavage; RNA array
Outline: (§1)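 Ribozyme variants carrying barcodes were transcribed in situ on sequenced MiSeq chips by E. coli RNA polymerase and tracked at 37 °C with a hybridised Cy3 probe. They were exposed to 40 μM to 10 mM glucosamine-6-phosphate in HEPES/KCl/Mg(OAc)2 buffer. kobs came from exponential decay fits of normalised per-tile medians, and kcat and KM from weighted Michaelis–Menten fits.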

glucosamine-6-phosphate [2] = variants of: B1; experiment: self-cleavage kobs at 2500 uM GlcN6P; higher = faster cleavage; RNA array
Outline: as §1

glucosamine-6-phosphate [3] = variants of: B1; experiment: self-cleavage kobs at 10000 uM GlcN6P; higher = faster cleavage; RNA array
Outline: as §1

A15C G29C G35A C50A
self-cleavage kobs at 640 uM GlcN6P (glucosamine-6-phosphate [1]): < 1e-05 s⁻¹
self-cleavage kobs at 2500 uM GlcN6P (glucosamine-6-phosphate [2]): < 1e-05 s⁻¹

C8U C16A G62U
self-cleavage kobs at 640 uM GlcN6P (glucosamine-6-phosphate [1]): < 1e-05 s⁻¹
self-cleavage kobs at 2500 uM GlcN6P (glucosamine-6-phosphate [2]): < 1e-05 s⁻¹

C19A U54C C58A C68G
self-cleavage kobs at 640 uM GlcN6P (glucosamine-6-phosphate [1]): 9.88e-05 ± 2.4e-05 s⁻¹
self-cleavage kobs at 2500 uM GlcN6P (glucosamine-6-phosphate [2]): 0.00036 ± 0.0001 s⁻¹

A33C A52G C67U
self-cleavage kobs at 640 uM GlcN6P (glucosamine-6-phosphate [1]): < 1e-05 s⁻¹
self-cleavage kobs at 2500 uM GlcN6P (glucosamine-6-phosphate [2]): < 1e-05 s⁻¹

A12C G32C G62A G63U
self-cleavage kobs at 640 uM GlcN6P (glucosamine-6-phosphate [1]): < 1e-05 s⁻¹
self-cleavage kobs at 2500 uM GlcN6P (glucosamine-6-phosphate [2]): < 1e-05 s⁻¹

C10G U54A C58G G62C C67G
self-cleavage kobs at 640 uM GlcN6P (glucosamine-6-phosphate [1]): 6.44e-05 ± 2.7e-05 s⁻¹
self-cleavage kobs at 2500 uM GlcN6P (glucosamine-6-phosphate [2]): 6.02e-05 ± 2.4e-05 s⁻¹

A14G C16U U45A G51U C61G
self-cleavage kobs at 640 uM GlcN6P (glucosamine-6-phosphate [1]): < 1e-05 s⁻¹

G13U C50A U69G
self-cleavage kobs at 640 uM GlcN6P (glucosamine-6-phosphate [1]): 0.000105 ± 3.4e-05 s⁻¹
self-cleavage kobs at 2500 uM GlcN6P (glucosamine-6-phosphate [2]): 5.37e-05 ± 1.8e-05 s⁻¹

U57A G60A C67G
self-cleavage kobs at 640 uM GlcN6P (glucosamine-6-phosphate [1]): 6.42e-05 ± 2.2e-05 s⁻¹
self-cleavage kobs at 2500 uM GlcN6P (glucosamine-6-phosphate [2]): 0.000109 ± 3.2e-05 s⁻¹

G38A G44U G62U
self-cleavage kobs at 640 uM GlcN6P (glucosamine-6-phosphate [1]): < 1e-05 s⁻¹
self-cleavage kobs at 2500 uM GlcN6P (glucosamine-6-phosphate [2]): < 1e-05 s⁻¹

A15G G35C A42U C50G C68A C71U
self-cleavage kobs at 640 uM GlcN6P (glucosamine-6-phosphate [1]): < 1e-05 s⁻¹
self-cleavage kobs at 2500 uM GlcN6P (glucosamine-6-phosphate [2]): < 1e-05 s⁻¹

C10G C16A A53U G66U U69A
self-cleavage kobs at 640 uM GlcN6P (glucosamine-6-phosphate [1]): 5.56e-05 ± 2.7e-05 s⁻¹
self-cleavage kobs at 2500 uM GlcN6P (glucosamine-6-phosphate [2]): 4.65e-05 ± 2e-05 s⁻¹

G37A A48C U55G
self-cleavage kobs at 640 uM GlcN6P (glucosamine-6-phosphate [1]): < 1e-05 s⁻¹

A6G A39C G63U A64U C67G
self-cleavage kobs at 640 uM GlcN6P (glucosamine-6-phosphate [1]): < 1e-05 s⁻¹
self-cleavage kobs at 10000 uM GlcN6P (glucosamine-6-phosphate [3]): < 1e-05 s⁻¹

G63U U65C
self-cleavage kobs at 640 uM GlcN6P (glucosamine-6-phosphate [1]): < 1e-05 s⁻¹
self-cleavage kobs at 2500 uM GlcN6P (glucosamine-6-phosphate [2]): < 1e-05 s⁻¹

A33U A42U G44C
self-cleavage kobs at 640 uM GlcN6P (glucosamine-6-phosphate [1]): < 1e-05 s⁻¹

G9C A12C C19A G51U U54G G63C C70G
self-cleavage kobs at 640 uM GlcN6P (glucosamine-6-phosphate [1]): < 1e-05 s⁻¹
self-cleavage kobs at 2500 uM GlcN6P (glucosamine-6-phosphate [2]): < 1e-05 s⁻¹

C16U G29U U31A
self-cleavage kobs at 640 uM GlcN6P (glucosamine-6-phosphate [1]): 0.00108 ± 0.00033 s⁻¹
self-cleavage kobs at 2500 uM GlcN6P (glucosamine-6-phosphate [2]): 0.0037 ± 0.00095 s⁻¹

G7A A14G G29U C70G
self-cleavage kobs at 640 uM GlcN6P (glucosamine-6-phosphate [1]): < 1e-05 s⁻¹
self-cleavage kobs at 2500 uM GlcN6P (glucosamine-6-phosphate [2]): < 1e-05 s⁻¹

G13U U56C A64U
self-cleavage kobs at 640 uM GlcN6P (glucosamine-6-phosphate [1]): < 1e-05 s⁻¹
self-cleavage kobs at 2500 uM GlcN6P (glucosamine-6-phosphate [2]): < 1e-05 s⁻¹
self-cleavage kobs at 10000 uM GlcN6P (glucosamine-6-phosphate [3]): < 1e-05 s⁻¹

A6C C34G C61U
self-cleavage kobs at 640 uM GlcN6P (glucosamine-6-phosphate [1]): < 1e-05 s⁻¹
self-cleavage kobs at 2500 uM GlcN6P (glucosamine-6-phosphate [2]): < 1e-05 s⁻¹

G9A G38A A42G U69G C70U C71A
self-cleavage kobs at 640 uM GlcN6P (glucosamine-6-phosphate [1]): < 1e-05 s⁻¹

C8A G35A G59A C70U
self-cleavage kobs at 640 uM GlcN6P (glucosamine-6-phosphate [1]): < 1e-05 s⁻¹
self-cleavage kobs at 2500 uM GlcN6P (glucosamine-6-phosphate [2]): < 1e-05 s⁻¹

G35C A36C G40A G62C A64G C70U
self-cleavage kobs at 640 uM GlcN6P (glucosamine-6-phosphate [1]): < 1e-05 s⁻¹
self-cleavage kobs at 2500 uM GlcN6P (glucosamine-6-phosphate [2]): < 1e-05 s⁻¹

C11A C50G U57G
self-cleavage kobs at 640 uM GlcN6P (glucosamine-6-phosphate [1]): 8.51e-05 ± 3e-05 s⁻¹
self-cleavage kobs at 2500 uM GlcN6P (glucosamine-6-phosphate [2]): 7.4e-05 ± 2.5e-05 s⁻¹

A14G A33G G37A C50G C70G
self-cleavage kobs at 640 uM GlcN6P (glucosamine-6-phosphate [1]): 6.3e-05 ± 2.1e-05 s⁻¹
self-cleavage kobs at 2500 uM GlcN6P (glucosamine-6-phosphate [2]): 4.9e-05 ± 1.5e-05 s⁻¹

A12U U30C A53C
self-cleavage kobs at 640 uM GlcN6P (glucosamine-6-phosphate [1]): 0.000316 ± 0.0001 s⁻¹
self-cleavage kobs at 2500 uM GlcN6P (glucosamine-6-phosphate [2]): 0.000389 ± 0.00012 s⁻¹
self-cleavage kobs at 10000 uM GlcN6P (glucosamine-6-phosphate [3]): 0.00132 ± 0.00056 s⁻¹

G13A A39U U55C
self-cleavage kobs at 640 uM GlcN6P (glucosamine-6-phosphate [1]): 4.33e-05 ± 1.4e-05 s⁻¹
self-cleavage kobs at 2500 uM GlcN6P (glucosamine-6-phosphate [2]): 0.000128 ± 2.9e-05 s⁻¹
